Data: the supplement of paper PMC9732359
± gives the uncertainty stated by the source.

Assay: protein stability index of a GFP-peptide fusion (yeast GPS) (PSI 1-4); higher = more stable; sorted into four equal gates, so the index is relative within each strain
Summary of the method: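 Each library plasmid carries Cherry plus GFP with a tiled 17-residue yeast protein peptide fused downstream, and the pooled library was carried in yeast. Mid-log cultures in leucine-free medium were sorted into four equal gates by GFP/Cherry ratio. Reads from Illumina sequencing of PCR-amplified plasmids from each gate were assigned to strains by barcodes. Per peptide, the protein stability index was computed as the summed products of gate read frequency and gate number.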

Sequence KSMELFYDIRSLLERHI [YJL039C/NUP192] has a protein stability index (doa10∆) of 2.84 ± 0.044, a protein stability index (pdr5∆) of 2.99 ± 0.038 and a protein stability index (san1∆) of 2.91 ± 0.04. For the same sequence, the protein stability index (ubr1∆) was 3.07 ± 0.046.
Work on FDDNDSGNNYNDINISS [MED2] yielded a protein stability index (doa10∆) of 3.08 ± 0.037, a protein stability index (pdr5∆) of 3.19 ± 0.039 and a protein stability index (san1∆) of 3.05 ± 0.038. It also gave a protein stability index (ubr1∆) of 3.151 ± 0.028.
Work on MSTDSIVKASNWRLVEV [RPL14A] yielded a protein stability index (doa10∆) of 2.82 ± 0.1, a protein stability index (pdr5∆) of 1.44 ± 0.13 and a protein stability index (ubr1∆) of 1.71 ± 0.087.
With KYLGLKPGSIDAISQVI [FAS1] the protein stability index (doa10∆) was 3.1 ± 0.081, the protein stability index (pdr5∆) was 3.1 ± 0.075 and the protein stability index (san1∆) was 2.91 ± 0.048. The protein stability index (ubr1∆) was 3.01 ± 0.061.
In the case of KDNECSSFEENNDLESV [RRI2], the protein stability index (doa10∆) is reported as 3.13 ± 0.16, the protein stability index (pdr5∆) is reported as 3.12 ± 0.16 and the protein stability index (san1∆) is reported as 3.1 ± 0.17. For the same sequence, the protein stability index (ubr1∆) was 3.34 ± 0.17.
NLENHFKKSKIDHINEE [SCL1] showed a protein stability index (doa10∆) of 2.74 ± 0.072, a protein stability index (pdr5∆) of 3.16 ± 0.075 and a protein stability index (san1∆) of 2.64 ± 0.065. For the same sequence, the protein stability index (ubr1∆) was 2.58 ± 0.047.
For KWAGIKTRKFVFNPPKP [CYT1], the protein stability index (doa10∆) was 3.04 ± 0.16, the protein stability index (pdr5∆) was 2.98 ± 0.24 and the protein stability index (san1∆) was 3.05 ± 0.17. It also gave a protein stability index (ubr1∆) of 2.95 ± 0.15.
TSLTSIKWENAFVSVYS [PRP8] showed a protein stability index (doa10∆) of 2.94 ± 0.07, a protein stability index (pdr5∆) of 2.62 ± 0.07 and a protein stability index (san1∆) of 3 ± 0.08. The protein stability index (ubr1∆) was 2.67 ± 0.038.
For HCIDYLRKNKLGYARFI [SMC4], the protein stability index (doa10∆) was 1.19 ± 0.036, the protein stability index (pdr5∆) was 1.21 ± 0.039 and the protein stability index (san1∆) was 1.14 ± 0.091. It also gave a protein stability index (ubr1∆) of 1.14 ± 0.04.
VSISTSVKPHVVEPEHM [SIR4] gave a protein stability index (doa10∆) of 2.54 ± 0.078, a protein stability index (pdr5∆) of 2.99 ± 0.089 and a protein stability index (san1∆) of 2.53 ± 0.087. It also gave a protein stability index (ubr1∆) of 2.65 ± 0.052.
Sequence DLSGADIQAMCTEAGLL [RPT2] has a protein stability index (doa10∆) of 2.73 ± 0.12, a protein stability index (pdr5∆) of 3.48 ± 0.13 and a protein stability index (san1∆) of 3.46 ± 0.05. For the same sequence, the protein stability index (ubr1∆) was 3.42 ± 0.062.
Work on VIVTDPRLDAQAIKEAS [RPS0B] yielded a protein stability index (doa10∆) of 3.03 ± 0.096, a protein stability index (pdr5∆) of 3.1 ± 0.083 and a protein stability index (san1∆) of 2.88 ± 0.072. It also gave a protein stability index (ubr1∆) of 2.9 ± 0.075.
VVDFKNKENDNVPSTKF [SNF12] showed a protein stability index (doa10∆) of 3.6 ± 0.19, a protein stability index (pdr5∆) of 3.23 ± 0.25 and a protein stability index (san1∆) of 3.04 ± 0.14.
Work on EKIWFAISKENLCGDIS [SIR3] yielded a protein stability index (doa10∆) of 2.39 ± 0.064, a protein stability index (pdr5∆) of 2.44 ± 0.078 and a protein stability index (san1∆) of 2.27 ± 0.11. The protein stability index (ubr1∆) was 1.91 ± 0.078.
For TKCSTVVKASELDQFWQ [SRP14], the protein stability index (doa10∆) was 2.17 ± 0.041, the protein stability index (pdr5∆) was 2.14 ± 0.047 and the protein stability index (san1∆) was 2.04 ± 0.082. It also gave a protein stability index (ubr1∆) of 1.72 ± 0.03.
Sequence LLLSRVRADDLSTRFNI [RRP43] has a protein stability index (doa10∆) of 3.24 ± 0.091, a protein stability index (pdr5∆) of 3.07 ± 0.063 and a protein stability index (san1∆) of 3.02 ± 0.06. It also gave a protein stability index (ubr1∆) of 3 ± 0.049.
Sequence NTQPSASGFGFGGSQPN [YGR119C/NUP57] has a protein stability index (doa10∆) of 3.18 ± 0.18, a protein stability index (pdr5∆) of 2.72 ± 0.15 and a protein stability index (san1∆) of 2.84 ± 0.12. The protein stability index (ubr1∆) was 2.77 ± 0.13.
Sequence VNDEEEHKQLVAEIVQN [RPC82] has a protein stability index (doa10∆) of 2.64 ± 0.12, a protein stability index (pdr5∆) of 2.54 ± 0.19 and a protein stability index (san1∆) of 2.56 ± 0.14. It also gave a protein stability index (ubr1∆) of 1.66 ± 0.098.
Work on PGRKYTTLGKLSTSVGW [RPL16A] yielded a protein stability index (doa10∆) of 2.92 ± 0.089, a protein stability index (pdr5∆) of 2.78 ± 0.092 and a protein stability index (san1∆) of 2.2 ± 0.23. It also gave a protein stability index (ubr1∆) of 2.47 ± 0.091.
Work on TSRTIVRNVKGPVREND [RPS28A] yielded a protein stability index (doa10∆) of 3.4 ± 0.11, a protein stability index (pdr5∆) of 3.16 ± 0.1 and a protein stability index (san1∆) of 3.59 ± 0.11. It also gave a protein stability index (ubr1∆) of 3.27 ± 0.086.
Sequence DGWVKLTYKSELSKSRA [YMR153W/NUP53] has a protein stability index (doa10∆) of 1.85 ± 0.062, a protein stability index (pdr5∆) of 1.88 ± 0.04 and a protein stability index (san1∆) of 1.95 ± 0.083. For the same sequence, the protein stability index (ubr1∆) was 1.84 ± 0.032.
Work on SSIENNINNNINSTKNG [MED2] yielded a protein stability index (doa10∆) of 2.85 ± 0.081, a protein stability index (pdr5∆) of 3.11 ± 0.093 and a protein stability index (san1∆) of 2.88 ± 0.084. The protein stability index (ubr1∆) was 3.17 ± 0.063.
TSQMDLARDTPSANNSS [RRP4] gave a protein stability index (doa10∆) of 1.86 ± 0.042, a protein stability index (pdr5∆) of 1.46 ± 0.064 and a protein stability index (san1∆) of 1.91 ± 0.077. The protein stability index (ubr1∆) was 1.51 ± 0.045.
LTTQFVTDKYTAKKTNR [YDL088C/ASM4] gave a protein stability index (doa10∆) of 2.74 ± 0.14, a protein stability index (pdr5∆) of 2.83 ± 0.093 and a protein stability index (ubr1∆) of 2.8 ± 0.11.
For DSNGDFNEDQLFSLLEL [RRP46], the protein stability index (doa10∆) was 2.83 ± 0.16, the protein stability index (pdr5∆) was 2.82 ± 0.16 and the protein stability index (san1∆) was 3.31 ± 0.069. It also gave a protein stability index (ubr1∆) of 2.98 ± 0.1.
With KISEDPVKALNECIAST [SNF12] the protein stability index (doa10∆) was 2.37 ± 0.17, the protein stability index (pdr5∆) was 2.86 ± 0.12 and the protein stability index (san1∆) was 2.62 ± 0.068. For the same sequence, the protein stability index (ubr1∆) was 2.82 ± 0.097.
For KRKYDEITHPPSTTDDE [SWI3], the protein stability index (doa10∆) was 3.13 ± 0.11, the protein stability index (pdr5∆) was 3.23 ± 0.12 and the protein stability index (san1∆) was 3.18 ± 0.071. It also gave a protein stability index (ubr1∆) of 3.29 ± 0.082.
In the case of KLDKQINMADRSLGLQQ [POP6], the protein stability index (doa10∆) is reported as 3.02 ± 0.12, the protein stability index (pdr5∆) is reported as 3.46 ± 0.21 and the protein stability index (san1∆) is reported as 3.02 ± 0.16. It also gave a protein stability index (ubr1∆) of 3.62 ± 0.26.
With QHTSFQEAVNSLKGYKI [CSI1] the protein stability index (doa10∆) was 3.15 ± 0.1, the protein stability index (pdr5∆) was 3.21 ± 0.065 and the protein stability index (san1∆) was 3.35 ± 0.048. It also gave a protein stability index (ubr1∆) of 3.39 ± 0.067.
Work on RVHRLLRRGNYAQRIGS [HTA1] yielded a protein stability index (doa10∆) of 2.65 ± 0.23, a protein stability index (pdr5∆) of 2.77 ± 0.19 and a protein stability index (san1∆) of 2.64 ± 0.094. For the same sequence, the protein stability index (ubr1∆) was 2.74 ± 0.24.
VFGTIIPKISDYIEFNI [YJL039C/NUP192] showed a protein stability index (doa10∆) of 2.05 ± 0.17, a protein stability index (pdr5∆) of 1.68 ± 0.22 and a protein stability index (ubr1∆) of 1.61 ± 0.26.
TANTGTIGKRRTTTNTT [TAF14] showed a protein stability index (doa10∆) of 3.18 ± 0.06, a protein stability index (pdr5∆) of 3.29 ± 0.046 and a protein stability index (san1∆) of 3.21 ± 0.045. The protein stability index (ubr1∆) was 3.19 ± 0.062.
Work on IKCSQSSHLSDNDFIIN [POP5] yielded a protein stability index (doa10∆) of 2.96 ± 0.09, a protein stability index (pdr5∆) of 2.85 ± 0.059 and a protein stability index (san1∆) of 2.66 ± 0.059. For the same sequence, the protein stability index (ubr1∆) was 2.55 ± 0.041.
LQIVNQLPANMVHLYSI [RPC17] showed a protein stability index (doa10∆) of 1.85 ± 0.043, a protein stability index (pdr5∆) of 1.9 ± 0.045 and a protein stability index (san1∆) of 1.67 ± 0.068. For the same sequence, the protein stability index (ubr1∆) was 1.79 ± 0.039.
QQKANLLSSSNFEATKK [COR1] gave a protein stability index (doa10∆) of 2.27 ± 0.069, a protein stability index (pdr5∆) of 2.5 ± 0.075 and a protein stability index (san1∆) of 2.1 ± 0.086. It also gave a protein stability index (ubr1∆) of 1.91 ± 0.05.
With SMINNSNQAVGQTWNFP [SRB8] the protein stability index (doa10∆) was 2.8 ± 0.17, the protein stability index (pdr5∆) was 3.01 ± 0.16 and the protein stability index (san1∆) was 3.15 ± 0.13. It also gave a protein stability index (ubr1∆) of 2.74 ± 0.12.
In the case of ENSGKEMDEKSYEKNED [LIN1], the protein stability index (doa10∆) is reported as 3.64 ± 0.28, the protein stability index (pdr5∆) is reported as 3.29 ± 0.12 and the protein stability index (san1∆) is reported as 3.33 ± 0.14. The protein stability index (ubr1∆) was 3.16 ± 0.11.
Sequence VRNFKEAAKLLVDSLAT [RPN7] has a protein stability index (doa10∆) of 2.23 ± 0.18.
Work on SGSQNISEFDSFTDILK [RPN12] yielded a protein stability index (doa10∆) of 3.37 ± 0.17, a protein stability index (pdr5∆) of 3.12 ± 0.09 and a protein stability index (san1∆) of 3 ± 0.099. For the same sequence, the protein stability index (ubr1∆) was 3.03 ± 0.066.
Sequence NRTFTDPPFRIEEQGWG [TAF14] has a protein stability index (doa10∆) of 3.11 ± 0.067, a protein stability index (pdr5∆) of 3.24 ± 0.057 and a protein stability index (san1∆) of 3.11 ± 0.1. The protein stability index (ubr1∆) was 3.07 ± 0.054.
In the case of CWAVRADVHFLDCDGGF [RRP45], the protein stability index (doa10∆) is reported as 2.31 ± 0.2, the protein stability index (pdr5∆) is reported as 2.65 ± 0.14 and the protein stability index (san1∆) is reported as 2.9 ± 0.085. The protein stability index (ubr1∆) was 2.72 ± 0.064.
LANEERLSNEMHALKNR [RGR1] showed a protein stability index (doa10∆) of 3.32 ± 0.12, a protein stability index (pdr5∆) of 3.42 ± 0.07 and a protein stability index (san1∆) of 3.4 ± 0.059. For the same sequence, the protein stability index (ubr1∆) was 3.66 ± 0.13.
With DTKDALSTRELAGKVGS [RPC53] the protein stability index (doa10∆) was 2.8 ± 0.08, the protein stability index (pdr5∆) was 2.27 ± 0.084 and the protein stability index (san1∆) was 2.79 ± 0.1. It also gave a protein stability index (ubr1∆) of 3.08 ± 0.071.
